Measurements: the supplement of paper PMC9732359
± gives the uncertainty stated by the source.

Assay: protein stability index of a GFP-peptide fusion (yeast GPS) (PSI 1-4); higher = more stable; sorted into four equal gates, so the index is relative within each strain
In short: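 Plasmids in a pooled yeast library fused tiled 17-residue yeast protein peptides downstream of GFP and also expressed Cherry. Mid-log cultures grown without leucine were sorted into four equal gates by GFP/Cherry fluorescence ratio. Each gate's plasmids were PCR-amplified and Illumina-sequenced, and reads were matched to strains by barcodes. The protein stability index is derived by multiplying each gate's read frequency by its gate number and summing the results.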

Sequence	protein stability index (doa10∆)	protein stability index (pdr5∆)	protein stability index (san1∆)	protein stability index (ubr1∆)
IIGTFSDSYKVSLQNFS [RRP40]	2.11 ± 0.099	1.79 ± 0.079	2.24 ± 0.11	1.96 ± 0.054
VRSLPKEEQPKQIIVTR [PRP8]	2.38 ± 0.1	2.09 ± 0.25	2.21 ± 0.12	1.98 ± 0.072
EEERRKKRESGVEEEEE [SNF2]	3.49 ± 0.079	3.35 ± 0.1	3.38 ± 0.11	3.46 ± 0.047
LLALRERRMQVTAEDFK [RPT2]	2.79 ± 0.13	2.8 ± 0.17	2.89 ± 0.11	
DPFFAQSEDLSHAVEFF [YML103C/NUP188]	3.23 ± 0.056	3.17 ± 0.057	3.31 ± 0.045	3.14 ± 0.042
QEKMDPNNSRDDYKDLT [IRR1]	3.33 ± 0.078	3.27 ± 0.083	3.23 ± 0.066	3.25 ± 0.076
VRWIETQDVFLKDFNTE [FAS2]	3.227 ± 0.03	3.065 ± 0.026	3.014 ± 0.025	3.154 ± 0.021
LDPLEVHMLDFPNIAIR [PRP8]	2.74 ± 0.059	2.79 ± 0.056	2.84 ± 0.051	2.88 ± 0.043
DTTVNDCLDKLLNDECT [SNF2]	3.43 ± 0.16	3.46 ± 0.1	3.59 ± 0.075	3.73 ± 0.094
RQVYKPVLDNPFTNEAH [POP3]	2.47 ± 0.073	2.67 ± 0.067	2.46 ± 0.082	2.88 ± 0.04
DLIKFSAETLSELIRTT [FAS1]	2.1 ± 0.076	2.29 ± 0.059	2.1 ± 0.081	2.12 ± 0.073
FSQTVADNNDLQESINH [ECM29]	3.03 ± 0.055	3.08 ± 0.049	3.02 ± 0.047	3.1 ± 0.048
LVLPPVVTSSVAESFTD [SNF2]	2.13 ± 0.047	2.02 ± 0.057	2.39 ± 0.084	2.32 ± 0.053
DFRTRYIDIRTNNVLRK [MTW1]	2.45 ± 0.087	2.86 ± 0.21	2.43 ± 0.27	2.66 ± 0.14
ANVVDITNDWEQPCVDI [YJR042W/NUP85]	3.3 ± 0.071	3.41 ± 0.062	3.23 ± 0.051	3.12 ± 0.06
VNGFLNLGYCNDKLIVD [RPN1]	3.32 ± 0.098	2.78 ± 0.067	2.89 ± 0.052	2.49 ± 0.079
TEHLTELSDNEENFEAT [YCG1]	2.87 ± 0.14	3.15 ± 0.16	3.54 ± 0.099	2.96 ± 0.12
LQFRPAPMYILDEVDAA [SMC2]	1.59 ± 0.2	1.89 ± 0.25		1.89 ± 0.1
LFQVESAPKISSEIDRE [SIR4]	2.35 ± 0.05	2.61 ± 0.062	2.37 ± 0.053	2.42 ± 0.045
FGIYILTQGINGKEVPL [MED1]	1.48 ± 0.1	1.45 ± 0.068	2.43 ± 0.14	1.38 ± 0.066
PQVLINRDPVKHAEFDL [SIR2]	2.39 ± 0.14	3.04 ± 0.093	3.08 ± 0.12	2.79 ± 0.1
INTHIETLAYNSLKETL [SNF2]	2.48 ± 0.054	2.76 ± 0.063	2.5 ± 0.047	2.61 ± 0.042
EFQPSGNVTELYGTAIG [PRE5]	2.15 ± 0.069	2.8 ± 0.07	1.98 ± 0.067	1.57 ± 0.041
VLQYSDWESDLHIHLNQ [YDL116W/NUP84]	2.48 ± 0.073	2.61 ± 0.065	2.75 ± 0.066	3.04 ± 0.081
ELLIYKKSQCKKKTTLE [YIL149C/MLP2]	3.03 ± 0.21	3.29 ± 0.13	2.95 ± 0.083	3.19 ± 0.15
QIMQLKKICNHPFVFEE [SNF2]	2.77 ± 0.075	2.38 ± 0.053	2.53 ± 0.063	2.55 ± 0.059
ESGLVNADLDVKDELMF [RPO21]	3.16 ± 0.059	3.27 ± 0.06	3.23 ± 0.059	3.3 ± 0.038

Sequence	protein stability index (doa10∆)	protein stability index (pdr5∆)	protein stability index (san1∆)	protein stability index (ubr1∆)
YSLASVTLKGAKALESL [POP1]	2.78 ± 0.049	2.83 ± 0.052	2.83 ± 0.045	2.77 ± 0.052
LSSDEKRELLKRYRLKE [RPB5]	3.08 ± 0.2	3.27 ± 0.17		3.52 ± 0.14
EEELWNSPSKGNSERPS [YIL149C/MLP2]	3.11 ± 0.1	3.38 ± 0.083	3.24 ± 0.061	3.27 ± 0.095
GDYVAYQLNGVAPFMIK [YMR129W/POM152]	1.53 ± 0.075	1.49 ± 0.08	1.66 ± 0.17	1.84 ± 0.059
LLFKARLQQQQAQAQAQ [GAL11]	1.3 ± 0.081	1.59 ± 0.075	1.3 ± 0.14	1.5 ± 0.056
RKEWFDIKAPSTFENRN [RPS1A]	1.95 ± 0.093	2.46 ± 0.07	1.77 ± 0.098	3.02 ± 0.06
LDDFGEEELFEVTKEED [RRP43]	2.92 ± 0.11	2.54 ± 0.15	2.36 ± 0.12	
AYSNTNTNTENENRNTG [SNF11]	3.1 ± 0.14	2.95 ± 0.065	2.95 ± 0.071	2.95 ± 0.072
MSDVEEVVEVQEETVVE [RPS12]	3.15 ± 0.1	3.36 ± 0.11	2.89 ± 0.084	3.12 ± 0.12
MTEDIEQKKTATEVTPQ [RPC19]	2.8 ± 0.12	3.2 ± 0.093	3.1 ± 0.098	3.28 ± 0.11
SRSRSSIRSISPAGKYK [ESC2]	2.84 ± 0.14	2.96 ± 0.099	3.17 ± 0.064	3.14 ± 0.085
LYAVSTFENTNNTEKND [SIR4]	2.37 ± 0.072	2.4 ± 0.075	2.5 ± 0.083	2.38 ± 0.057
HVPEKKSTDLTPKGNES [MTR3]	2.97 ± 0.12	2.43 ± 0.13	2.66 ± 0.084	3.11 ± 0.096
FFYNISSIHWNNWFSLP [SIN4]	2.09 ± 0.036	1.96 ± 0.038	2.03 ± 0.05	2.13 ± 0.036
LREKEDKKNSSDPNNQS [YJL039C/NUP192]	3.06 ± 0.11	3.09 ± 0.13	3.17 ± 0.099	3.33 ± 0.071
VPAVVDDPLENMFGDYS [SNF6]	3.09 ± 0.14	3.48 ± 0.12	2.85 ± 0.17	3.35 ± 0.11
MVAATKRRKTHIHKHVK [RET1]	2.96 ± 0.17	3.08 ± 0.15	2.31 ± 0.2	3.09 ± 0.1
SVPLVIGQFLEPIDQNT [RPT3]	1.88 ± 0.11	2.77 ± 0.095	2.95 ± 0.13	2.71 ± 0.067
SNQFKRSLATAVATPKA [COR1]	1.55 ± 0.051	1.75 ± 0.049	1.35 ± 0.089	1.3 ± 0.041
VVNITHHELVPKHIRLS [RPB5]	2.52 ± 0.065	2.89 ± 0.062	3.01 ± 0.064	3.01 ± 0.056
DPKRLFEGNALIRRLVR [RPS9A]		3.52 ± 0.28		
KKAFTSYDRTLLIADSR [RPS16A]	2.25 ± 0.044	2.48 ± 0.073	1.9 ± 0.079	2.24 ± 0.059
AQFVSNKQYHQANSNLT [NUT1]	2.94 ± 0.081	3.21 ± 0.076	3 ± 0.1	3.23 ± 0.092
DSFSGAKIYPGRGTLFV [RPL24A]	3.13 ± 0.065	3.08 ± 0.067	2.78 ± 0.06	2.68 ± 0.052
LKHYNGYDINYISKIGE [SWI1]	2.81 ± 0.056	2.71 ± 0.049	2.07 ± 0.066	2.62 ± 0.053
QVNQLQRILEVLGTPDQ [SSN3]	1.49 ± 0.043	1.69 ± 0.037	1.34 ± 0.05	1.51 ± 0.038
